In publication PMC11548252 one finds binding (% fluorescence increase) and binding (% increase of Abs430/Abs560) data, which are given here for 2 sequences.

Read-outs that look alike come from different tables or passages of the source.

Data set [1] has as its target SARS-CoV-2 Spike protein (SARS-CoV-2) (UniProt P0DTC2). As to the kind of experiment: fluorescence dequenching (Cy5/BHQ2).
Data set [2] has the same target. As to the kind of experiment: fluorescence dequenching (Cy5/BHQ2). The source holds these as a separate data set.
Data set [3] has the same target. As to the kind of experiment: ligand-responsive LAMP, colorimetric (indirect). The following applies: 5'-phosphate.

As to “CAGCACCGACCTTGTGCTTTGGGAGTGCTGGTCCAAGGGCGTTAATGGAC [EY615QF]”, the binding (% fluorescence increase) in data set [1] was found to be 46; in data set [2] it was 31.

With “CAGCACCGACCTTGTGCTTTGGGAGTGCTGGTCCAAGGGCGTTAATGGAC [EY615]”, in data set [3], the binding (% increase of Abs430/Abs560) is 81.
